These results are taken from paper PMC7195389, “Inter-domain dynamics in the chaperone SurA and multi-site binding to its outer membrane protein clients” (Nature Communications, 2020).

Where a chain is given by its changes, count along the chain named. Names and notes keep the numbering of the source.

Holding throughout (conditions): both partners purified
Assay [1] concerns the target T1, SurA (E. coli periplasmic chaperone, wild type, mature sequence) (E. coli, UniProt P0ABZ6 21-428).
T1 construct: numbering is the gene numbering with the signal peptide; also called SurA WT; apo-SurA; source: E. coli BL21(DE3), purified (HisTrap, denatured on-column with 6 M Gdn-HCl, TEV cleavage, second HisTrap); not shown: His6, N-terminal, cleaved
T1 sequence (looked up): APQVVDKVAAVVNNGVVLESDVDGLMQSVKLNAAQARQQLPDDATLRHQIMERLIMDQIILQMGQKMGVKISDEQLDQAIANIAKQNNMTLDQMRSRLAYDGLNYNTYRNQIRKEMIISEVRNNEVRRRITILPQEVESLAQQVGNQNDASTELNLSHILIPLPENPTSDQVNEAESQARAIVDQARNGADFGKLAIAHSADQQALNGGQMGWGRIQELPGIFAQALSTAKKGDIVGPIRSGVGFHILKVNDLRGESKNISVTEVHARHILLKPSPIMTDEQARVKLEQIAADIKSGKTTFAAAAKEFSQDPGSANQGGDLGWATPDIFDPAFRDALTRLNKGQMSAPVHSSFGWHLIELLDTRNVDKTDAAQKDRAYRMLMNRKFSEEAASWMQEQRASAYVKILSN
Description: MST; 50 nM Alexa Fluor 488-labelled Cys-OmpX, SurA titrated 100 µM-3 nM, 0.24 M urea, 50 mM Tris-HCl pH 8.0; fitted to the Hill equation; apparent.

Assay [2] has as its target T1, SurA (E. coli periplasmic chaperone, …). Description: cross-linking; tag-transfer photo-cross-linking: 10 µM SurA, 5 µM MTS-diazirine-labelled OmpX Cys variant, 0.24 M urea, 10 mM potassium phosphate pH 8.0, UV LED 30 s; SDS-PAGE, LC-MS/MS.
Assay [3] has the same target. Description: HDX-MS; differential HDX of 8 µM SurA without and with 8 µM OmpX or OmpF, 10 mM potassium phosphate pH 8.0, 0.24 M urea, 4 °C, 0.5-120 min.
Assay [4] has as its target T2, SurA Q85C-N193C labelled with Alexa Fluor 488 and Alexa Fluor 594 (E. coli, UniProt P0ABZ6 21-428, Q85C | N193C, Alexa Fluor 488 C5 maleimide and Alexa Fluor 594 C5 maleimide, stochastically, on Cys 85 and Cys 193).
T2 construct: gene numbering with the signal peptide; also called core-P1 SurA variant; SurA core-P1; source: E. coli BL21(DE3), purified as wild type with 10 mM DTT; labelled with Alexa Fluor maleimides, SEC; not shown: His6, N-terminal, cleaved
T2 sequence (looked up): T1 sequence (looked up) with Q65C, N173C
Description: FRET or BRET; intramolecular smFRET (ALEX) of ~50 pM doubly labelled SurA variant with 1.5 µM OmpX or OmpF, 50 mM Tris-HCl pH 8.0, 0.24 M urea, 25 °C; change of the inter-domain E_FRET distribution against apo-SurA.

The target of assay [5] is T1, SurA (E. coli periplasmic chaperone, …). Description: cross-linking; DSBU, 5 µM SurA, 5 µM OmpX, 0.24 M urea, 10 mM potassium phosphate pH 8.0, 45 min, room temperature; SDS-PAGE band, in-gel digestion, LC-MS/MS.
Assay [6] has the same target. Description: HDX-MS; differential HDX of 8 µM SurA without and with 110 µM WEYIPNV, 10 mM potassium phosphate pH 8.0, 4 °C, 0.5-120 min.
In assay [7] the target is T2, SurA Q85C-N193C labelled with Alexa …. Description: FRET or BRET; intramolecular smFRET (ALEX) of ~50 pM doubly labelled SurA variant with 1.5 µM WEYIPNV, 50 mM Tris-HCl pH 8.0, 25 °C; change of the inter-domain E_FRET distribution against apo-SurA.
In assay [8] the target is T3, SurA Q85C-E301C labelled with Alexa Fluor 488 and Alexa Fluor 594 (E. coli, UniProt P0ABZ6 21-428, Q85C | E301C, Alexa Fluor 488 C5 maleimide and Alexa Fluor 594 C5 maleimide, stochastically, on Cys 85 and Cys 301).
T3 construct: gene numbering with the signal peptide; also called core-P2 SurA variant; SurA core-P2; source: E. coli BL21(DE3), purified as wild type with 10 mM DTT; labelled with Alexa Fluor maleimides, SEC; not shown: His6, N-terminal, cleaved
T3 sequence (looked up): T1 sequence (looked up) with Q65C, E281C
Described as above.

B1: Cys-OmpX labelled with Alexa Fluor 488 (natural protein, E. coli)
chain: MGSCATSTVTGGYAQSDAQGQMNKMGGFNLKYRYEEDNSPLGVIGSFTYTEKSRTASSGDYNKNQYYGITAGPAYRINDWASIYGVVGVGYGKFQTTEYPTYKHDTSDYGFSYGAGLQFNPMENVALDFSYEQSRIRSVDVGTWIAGVGYRF
modifications: Alexa Fluor 488 C5 maleimide on the added Cys
notes: N-terminal Met followed by the added residues Gly-Ser-Cys (named in words); also called labelled Cys-OmpX; source: E. coli BL21[DE3], inclusion bodies, purified; labelled with Alexa Fluor 488 C5 maleimide
Take B1: the Kd in assay [1] is roughly 800 nM.

B2: OmpX V167C labelled with MTS-diazirine (natural protein, E. coli)
chain: MATSTVTGGYAQSDAQGQMNKMGGFNLKYRYEEDNSPLGVIGSFTYTEKSRTASSGDYNKNQYYGITAGPAYRINDWASIYGVVGVGYGKFQTTEYPTYKHDTSDYGFSYGAGLQFNPMENVALDFSYEQSRIRSVDVGTWIAGCGYRF
modifications: MTS-diazirine on Cys 167
notes: N-terminal Met residue of the OmpX construct (named in words); source: purified, conjugated with MTS-diazirine in 6 M guanidine-HCl
In the case of B2, the binding result in assay [2] is on record as “binds”.

B3: OmpF (E. coli outer membrane protein F, mature sequence, unfolded) (natural protein, UniProt P02931 23-362, looked up)
chain: AEIYNKDGNKVDLYGKAVGLHYFSKGNGENSYGGNGDMTYARLGFKGETQINSDLTGYGQWEYNFQGNNSEGADAQTGNKTRLAFAGLKYADVGSFDYGRNYGVVYDALGYTDMLPEFGGDTAYSDDFFVGRVGGVATYRNSNFFGLVDGLNFAVQYLGKNERDTARRSNGDGVGGSISYEYEGFGIVGAYGAADRTNLQEAQPLGNGKKAEQWATGLKYDANNIYLAANYGETRNATPITNKFTNTSGFANKTQDVLLVAQYQFDFGLRPSIAYTKSKAKDVEGIGDVDLVNYFEVGATYYFNKNMSTYVDYIINQIDSDNKLGVGSDDTVAVGIVYQF
notes: source: E. coli BL21[DE3], inclusion bodies, purified (gel filtration in 6 M Gdn-HCl); urea-denatured and diluted into the assay
Turning to B3, the binding result in assay [3] and in assay [4] was “binds” throughout.

B4: OmpX M41C labelled with MTS-diazirine (natural protein, E. coli)
chain: B2 chain with M19C, C145V
modifications: MTS-diazirine on Cys 41
notes: as for B2
In the case of B4, in assay [2], the binding result is on record as “binds”.

B5: OmpX K122C labelled with MTS-diazirine (natural protein, E. coli)
chain: B2 chain with K100C, C145V
modifications: MTS-diazirine on Cys 122
notes: as for B2
Take B5: the binding result in assay [2] is given as “binds”.

B6: OmpX (E. coli outer membrane protein X, mature sequence, unfolded) (natural protein)
chain: B2 chain with C145V
notes: N-terminal Met residue of the construct (named in words); Unfolded client in 0.24 M urea; source: E. coli BL21[DE3], inclusion bodies, purified (gel filtration in 6 M Gdn-HCl); urea-denatured and diluted into the assay
As for B6, the binding result in assay [5] and in assay [4] was “binds” in each case.

B7: OmpX I102C labelled with MTS-diazirine (natural protein, E. coli)
chain: B2 chain with I80C, C145V
modifications: MTS-diazirine on Cys 102
notes: as for B2
In the case of B7, in assay [2], the binding result is recorded as “binds”.
As for WEYIPNV [WEYIPNV peptide], the binding result in assay [6], in assay [7] and in assay [8] was “binds” in each case.
